Assay results published in publication PMC4911086 (PLoS ONE, 2016).

T1: recombinant human RANK (human, UniProt Q9Y6Q6 30-212)
T1 construct: human RANK, recombinant, R&D Systems cat# 683-RK; The vendor's product 683-RK is, as far as I recall, an Fc chimera of the RANK extracellular domain (human IgG1 Fc, C-terminal); also called rRANK; source: bought: R&D Systems (cat# 683-RK)
T1 sequence (looked up): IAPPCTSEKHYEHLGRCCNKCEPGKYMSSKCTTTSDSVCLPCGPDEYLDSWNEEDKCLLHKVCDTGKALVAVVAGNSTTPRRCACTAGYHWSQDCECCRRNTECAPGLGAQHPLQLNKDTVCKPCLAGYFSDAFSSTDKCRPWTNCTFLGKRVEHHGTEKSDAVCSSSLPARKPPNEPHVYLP

B1: recombinant human RANKL (ligand, UniProt O14788 140-317, looked up)
chain: IRAEKAMVDGSWLDLAKRSKLEAQPFAHLTINATDIPSGSHKVSLSSWYHDRGWAKISNMTFSNGKLIVNQDGFYYLYANICFRHHETSGDLATEYLQLMVYVTKTSIKIPSSHTLMKGGSTKYWSGNSEFHFYSINVGGFFKLRSGEEISIEVSNPSLLDPDQDATYFGAFKVRDID
notes: The vendor's product is, as far as I recall, a soluble extracellular fragment of human RANKL; also called rRANKL; source: bought: R&D Systems (cat# 390-TN)

What was measured:
RANKL (Homo sapiens) = RANKL (Homo sapiens) (UniProt O14788); settings: cited from earlier work
recombinant human RANK = biological target: T1, recombinant human RANK; test: ELISA; polyvinyl 96-well plates coated with 500 ng/well recombinant human RANK; RANKL (500 ng/mL in PBS-T with 0.1% BSA) pre-incubated with serially diluted GM-0111 for about 16 hrs at 4°C, then 1 hr at 37°C on the RANK-coated wells; bound RANKL detected with anti-RANKL antibody and HRP-conjugated anti-goat IgG, absorbance at 450 nm; settings: both partners purified

Row | Molecule | Kd (RANKL (Homo sapiens)) | binding result (recombinant human RANK)
1 | OPG (from UniProt O00300) | 4.24 nM | –
2 | B1 | – | binds
